From US20090238791A1 (INSTITUT NATIONAL DE LA SANTE ET DE LA RECHERCHE MEDICALE …, published 2009)

What was measured:
[1] = biological target: T1, Recombinant human IL-15 (human, UniProt P40933 49-162); assay: SPR, analysis of sensorgrams
T1 construct: also called rIL-15; human rIL-15
Experimental: (§1) These experiments were performed with a BIACore 2000 biosensor (BIACore, Uppsala, Sweden). rIL-15 was covalently linked to CM5 sensor chips, and the binding of increasing concentrations of sIL-15Rα-IL-2, sIL-15Rα-sushi-IL-2 or sIL-15Rα-sushi was monitored. Analysis of sensograms was performed using BIAlogue kinetics evaluation software.

[2] = biological target: T1, Recombinant human IL-15; assay: SPR
[3] = biological target: T1, Recombinant human IL-15; assay: Competition with 125I-rIL-15 (200 pM) binding to IL-15Rα on TF-1 cells
Experimental: The three soluble forms of IL-15Rα were tested for their ability to compete out the binding of radio-iodinated IL-15 to IL-15Rα expressed by the human cell line TF-1 which also expresses the IL-15Rγ chain, but not the IL-15Rβ chain (FIG. 1D).

[4] = biological target: T1, Recombinant human IL-15; assay: SPR, BIAcore 2000
Experimental: as §1

[5] = biological target: T2, IL-15Rβ/γ complex (intermediate affinity receptor), human (human, UniProt P14784 27-551; P31785 23-369); assay: 125I-sIL-15Rα-sushi saturation binding to TF-1β cells in the presence of 1 nM rIL-15
T2 construct: whole, on cells; Found on Mo-7 cells, which express IL-15Rβ/γ but not IL-15Rα; also called IL-15Rbeta/gamma; IL-2Rβ/γ
T2 sequence (P14784 whole entry, chain 1 of 2): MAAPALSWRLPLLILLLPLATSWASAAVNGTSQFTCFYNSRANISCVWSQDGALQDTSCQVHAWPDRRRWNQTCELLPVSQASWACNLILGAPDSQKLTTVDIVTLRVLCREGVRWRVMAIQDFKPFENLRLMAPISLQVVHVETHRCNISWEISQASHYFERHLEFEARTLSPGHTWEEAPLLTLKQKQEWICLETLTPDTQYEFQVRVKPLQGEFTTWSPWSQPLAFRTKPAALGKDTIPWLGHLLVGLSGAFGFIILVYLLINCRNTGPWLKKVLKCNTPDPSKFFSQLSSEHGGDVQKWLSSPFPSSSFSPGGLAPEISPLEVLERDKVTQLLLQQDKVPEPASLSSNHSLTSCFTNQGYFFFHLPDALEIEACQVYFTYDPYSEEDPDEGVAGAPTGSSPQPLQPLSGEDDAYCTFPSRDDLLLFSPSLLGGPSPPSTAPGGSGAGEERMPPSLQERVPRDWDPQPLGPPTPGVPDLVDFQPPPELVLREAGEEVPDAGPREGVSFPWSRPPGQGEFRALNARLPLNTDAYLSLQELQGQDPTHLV
T2 sequence (P31785 whole entry, chain 2 of 2): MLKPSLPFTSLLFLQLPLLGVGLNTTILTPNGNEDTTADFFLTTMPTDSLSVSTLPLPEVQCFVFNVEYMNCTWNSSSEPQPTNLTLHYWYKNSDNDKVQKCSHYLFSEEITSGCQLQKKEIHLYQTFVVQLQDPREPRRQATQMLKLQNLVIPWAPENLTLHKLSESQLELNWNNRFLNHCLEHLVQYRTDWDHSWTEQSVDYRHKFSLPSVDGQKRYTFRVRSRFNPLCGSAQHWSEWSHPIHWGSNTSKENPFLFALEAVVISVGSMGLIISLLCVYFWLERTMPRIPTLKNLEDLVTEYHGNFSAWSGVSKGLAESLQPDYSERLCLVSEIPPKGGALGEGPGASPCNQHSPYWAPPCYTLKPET
Experimental: Labeling with [¹²⁵I]-iodine of human rIL-15, sIL-15Rα-sushi and RLI fusion protein, and subsequent binding experiments were performed as described previously (19). For internalization, cells were equilibrated at 4° C. with labeled sIL-15Rα-sushi or RLI, and the temperature switched to 37° C. At different time intervals, two samples were washed and centrifuged. One of the cell pellets was treated with glycine-HCl buffer 0.2 M, pH 2.5, whereas the other was treated with PBS pH 7.4 at 4° C. for 5 min. After centrifugation, total ligand binding was determined from the pellet of the cells treated with PBS, whereas the membrane bound and internalized fractions were determined respectively from the supernatant and pellet of cells treated with acid pH.
As further shown in FIG. 6D, the radiolabeled sIL-15Rα-sushi was efficiently internalized. Radiolabeled RLI fusion protein also bound to TF1β cells (FIG. 6E). […] Once bound, the RLI was also efficiently internalized (FIG. 6F).

[6] = biological target: T1, Recombinant human IL-15; assay: cell-based or functional assay

T1 sequence (P40933 49-162 limits assumed): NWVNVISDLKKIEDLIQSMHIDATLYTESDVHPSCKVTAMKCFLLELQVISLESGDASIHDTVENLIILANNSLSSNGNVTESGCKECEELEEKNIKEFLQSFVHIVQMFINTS

Binder | Kd [1] | fold increase in binding affinity compared to sIL-15Rα-Sushi-IL-2 [2] | fold lower affinity than the full length soluble IL-15Rα [2] | IC50 [3] | Kd [4] | koff [4] | kon [4] | Kd [5] | IC50 of the potentiation of Mo-7 proliferation driven by a fixed concentration of rIL-15 (1 nM) [6]
sIL-15Rα-Sushi+ (receptor, Expressed in SF9 insect cells; No sentence names it for Sushi+; also called Sushi15+; Flag-Factor Xa tagged sIL-15Rα-Sushi+; not shown: Flag-Factor Xa tag) ITCPPPMSVEHADIWVKSYSLYSRERYICNSGFKRKAGTSSLTECVLNKATNVAHWTTPSLKCIRDPALVHQRPAPP | 0.102 nM | 4 fold | 3 fold |  |  |  |  |  | 
sIL-15Rα-sushi (receptor, also called soluble sushi domain; not shown: Vector-encoded tag of pQE30; The protein was trapped on Ni-NTA agarose) ITCPPPMSVEHADIWVKSYSLYSRERYICNSGFKRKAGTSSLTECVLNKATNVAHWTTPSLKCIRD |  |  |  | 1.3 nM | 1.5 nM | 0.00038 s⁻¹ | 250000 M⁻¹ s⁻¹ | 3.5 nM | 3.5 nM
